From publication PMC2959088, “Molecular determinants of improved cathepsin B inhibition by new cystatins obtained by DNA shuffling” (BMC Structural Biology, 2010)

Molecular target: T1, human cathepsin L (human)
T1 construct: cathepsin L, human, bought from Calbiochem; active enzyme used at 0.3 nM; source: bought: Calbiochem
Experiment: enzyme inhibition assay (residual activity on the fluorogenic substrate Z-Phe-Arg-MCA); cathepsin B or L (0.3 nM) incubated 5 min at 37°C with varied inhibitor in 100 mM sodium acetate pH 5.5, 2.5 mM DTT; substrate 0.01 mM; triplicate; Ki(app) by non linear regression (GraFit), Ki by Morrison's procedure
Details: both partners purified

B1: Oryzacystatin-1 N-terminal deletion (NΔ) (natural protein)
chain: MSSDGGPVGNENDLHLVDLARFAVTEHNKKANSLLEFEKLVSVKQQVVAGTLYYFTIEVKEGDAKKLYEAKVWEKPWMDFKELQEFKPVDASANA
Ki: 5.66 nM
